# B1: Drp1 (dynamin-related protein Drp1), wild type [not stated] / GST-MiD51^133-463, wild type [human] (parent complex)
# chain 1: MEALIPVINKLQDVFNTVGADIIQLPQIVVVGTQSSGKSSVLESLVGRDLLPRGTGIVTRRPLILQLVHVSQEDKRKTTGEENGVEAEEWGKFLHTKNKLYTDFDEIRQEIENETERISGNNKGVSPEPIHLKIFSPNVVNLTLVDLPGMTKVPVGDQPKDIELQIRELILRFISNPNSIILAVTAANTDMATSEALKISREVDPDGRRTLAVITKLDLMDAGTDAMDVLMGRVIPVKLGIIGVVNRSQLDINNKKSVTDSIRDEYAFLQKKYPSLANRNGTKYLARTLNRLLMHHIRDCLPELKTRINVLAAQYQSLLNSYGEPVDDKSATLLQLITKFATEYCNTIEGTAKYIETSELCGGARICYIFHETFGRTLESVDPLGGLNTIDILTAIRNATGPRPALFVPEVSFELLVKRQIKRLEEPSLRCVELVHEEMQRIIQHCSNYSTQELLRFPKLHDAIVEVVTCLLRKRLPVTNEMVHNLVAIELAYINTKHPDFADACGLMNNNIEEQRRNRLARELPSAVSRDKVASGGGGVGDGVQEPTTGNWRGMLKTSKAEELLAEEKSKPIPIMPASPQKGHAVNLLDVPVPVARKLSAREQRDCEVIERLIKSYFLIVRKNIQDSVPKAVMHFLVNHVKDTLQSELVGQLYKSSLLDDLLTESEDMAQRRKEAADMLKALQGASQIIAEIRETHLW
# chain 2: MSLQEKLLTYYRNRAAIPAGEQARAKQAAVDICAELRSFLRAKLPDMPLRDMYLSGSLYDDLQVVTADHIQLIVPLVLEQNLWSCIPGEDTIMNVPGFFLVRRENPEYFPRGSSYWDRCVVGGYLSPKTVADTFEKVVAGSINWPAIGSLLDYVIRPAPPPEALTLEVQYERDKHLFIDFLPSVTLGDTVLVAKPHRLAQYDNLWRLSLRPAETARLRALDQADSGCRSLCLKILKAICKSTPALGHLTASQLTNVILHLAQEEADWSPDMLADRFLQALRGLISYLEAGVLPSALNPKVNLFAELTPEEIDELGYTLYCSLSEPEVLLQT
# Variants of: B1
# Test: GST pull-down, SDS-PAGE band quantification; parent: 0.3; read off a plot
row,response [molar ratio],Variant
1,~0.082,chain 2 R111E
2,~0.058,chain 2 Y108A
3,~0.055,chain 2 F109A
4,~0.42,chain 2 E107R
5,~0.082,chain 2 R102E
6,~0.33,chain 2 S285Q

# Variants of: B1
# Test: GST pull-down, SDS-PAGE band quantification; parent: 0.15; read off a plot
row,Variant,response [molar ratio]
1,"chain 1 A395D, chain 1 G401A, chain 1 P402A, chain 1 R403A, chain 1 P404A",~0.012
2,chain 1 G350D,~0.089
3,"chain 1 G350D, chain 1 G401A, chain 1 P402A, chain 1 R403A, chain 1 P404A",~0.017
4,chain 1 A395D,~0.084
5,"chain 1 G350D, chain 1 A395D",~0.01
6,"chain 1 G401A, chain 1 P402A, chain 1 R403A, chain 1 P404A",~0.064

# Continued, values first:
row,response [molar ratio],Variant
1,~0.16,chain 1 S600D
2,~0.19,chain 1 S579D
